# In patent publication US20250243273A1 (FOURTH MILITARY MEDICAL UNIVERSITY, published 2025):
# T1: human BASIGIN, native, on human erythrocytes and in human tumour tissue (human, UniProt P35613 22-385)
# T1 sequence (looked up): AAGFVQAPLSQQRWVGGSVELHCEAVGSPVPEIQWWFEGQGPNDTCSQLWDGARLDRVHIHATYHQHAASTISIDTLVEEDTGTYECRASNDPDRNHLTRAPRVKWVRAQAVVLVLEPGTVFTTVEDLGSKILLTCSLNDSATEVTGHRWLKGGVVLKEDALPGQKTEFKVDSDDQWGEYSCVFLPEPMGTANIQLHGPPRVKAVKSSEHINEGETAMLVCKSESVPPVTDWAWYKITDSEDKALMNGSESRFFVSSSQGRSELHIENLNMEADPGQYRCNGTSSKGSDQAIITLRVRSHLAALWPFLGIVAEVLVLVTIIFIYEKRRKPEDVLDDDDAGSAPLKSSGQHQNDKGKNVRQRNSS
# Target: T1, human BASIGIN, native, on human …
# Test: cell-based or functional assay
binder,measurement,value
"humanized antibody HP6H8-1 (antibody, V domains shown) VH: EVQLVESGGGLVQPGGSLRLSCAASGFTFSNFWMNWVRQAPGKGLEWVSEIRLKSNNYATHYAESVKGRFTISRDDSKNTLYLQMNSLKTEDTAVYYCTSYDYEYWGQGTLVTVSA VL: DIQMTQSPSTLSASVGDRVTLSCKASENVGTYVSWYQQKPGKAPKLLIYGASNRYTGVPSRFTGSGSGTDFTLTISSLQPEDFATYYCGQSYSYPFTFGSGTKLEIK","IC50, in vitro inhibition of Plasmodium falciparum strain 3D7 invasion of human erythrocytes (parasite rate after 72 hrs)",20 µg/mL
same,"IC50, in vitro inhibition of Plasmodium falciparum strain Dd2 invasion of human erythrocytes (parasite rate after 72 hrs)",40 µg/mL
same,"IC50, in vitro inhibition of Plasmodium falciparum strain FCC1 invasion of human erythrocytes (parasite rate after 72 hrs)",40 µg/mL
same,"IC50, in vitro inhibition of Plasmodium falciparum strain Nf54 invasion of human erythrocytes (parasite rate after 72 hrs)",50 µg/mL
